Biological target: mucins in cell-free regions of human cervicovaginal mucus (CVM) (human (endogenous in cervicovaginal mucus))
Test: FRAP (fluorescence recovery after photobleaching); labeled exogenous IgG (0.1–1.5 mg/mL final) stirred into 10 μL of fresh pH-neutralized (pH 6.8–7.1) human CVM, 1 hr at 37°C; about 10 μm x 10 μm ROIs in cell-free regions; recovery half-time against PBS (Dcvm/Dpbs); 7–9 repeats

Substance: Human intravenous immunoglobulin (IVIG), FITC-labeled (antibody)
- Dcvm/Dpbs: 0.8

From PMC4928780
